Results from article PMC3034218 (Journal of molecular biology, 2004).

B2: τ protein (τ subunit of the clamp-loader), B. subtilis, full-length (natural protein, UniProt P09122 1-563, looked up)
chain: MSYQALYRVFRPQRFEDVVGQEHITKTLQNALLQKKFSHAYLFSGPRGTGKTSAAKIFAKAVNCEHAPVDEPCNECAACKGITNGSISDVIEIDAASNNGVDEIRDIRDKVKFAPSAVTYKVYIIDEVHMLSIGAFNALLKTLEEPPEHCIFILATTEPHKIPLTIISRCQRFDFKRITSQAIVGRMNKIVDAEQLQVEEGSLEIIASAADGGMRDALSLLDQAISFSGDILKVEDALLITGAVSQLYIGKLAKSLHDKNVSDALETLNELLQQGKDPAKLIEDMIFYFRDMLLYKTAPGLEGVLEKVKVDETFRELSEQIPAQALYEMIDILNKSHQEMKWTNHPRIFFEVAVVKICQTSHQSAADLPEVDMLMKKIQQLEQEVERLKTTGIKAAAESPKKEAPRVPKGGKSNYKAPVGRIHEILKEATRPDLDLLRNSWGKLLAHLKQQNKVSHAALLNDSEPVAAGSAAFVLKFKYEIHCKMVAEDNNGVRTNLEQILESMLGKRMDLIGVPEAQWGKIREEFLEDHQQENEGSNEPAEEDPLIAEAKKLVGADLIEIKD

Legend:
τ (Escherichia coli) = τ (Escherichia coli) (UniProt P06710); conditions: cited from earlier work
[1] = target: τ domain III, B. subtilis (B. subtilis); experiment: SEC
[2] = target: B2; experiment: SPR
atomic force microscopy = target: the molecule itself; experiment: atomic force microscopy

Sequence of τ (Escherichia coli) (P06710 2-643): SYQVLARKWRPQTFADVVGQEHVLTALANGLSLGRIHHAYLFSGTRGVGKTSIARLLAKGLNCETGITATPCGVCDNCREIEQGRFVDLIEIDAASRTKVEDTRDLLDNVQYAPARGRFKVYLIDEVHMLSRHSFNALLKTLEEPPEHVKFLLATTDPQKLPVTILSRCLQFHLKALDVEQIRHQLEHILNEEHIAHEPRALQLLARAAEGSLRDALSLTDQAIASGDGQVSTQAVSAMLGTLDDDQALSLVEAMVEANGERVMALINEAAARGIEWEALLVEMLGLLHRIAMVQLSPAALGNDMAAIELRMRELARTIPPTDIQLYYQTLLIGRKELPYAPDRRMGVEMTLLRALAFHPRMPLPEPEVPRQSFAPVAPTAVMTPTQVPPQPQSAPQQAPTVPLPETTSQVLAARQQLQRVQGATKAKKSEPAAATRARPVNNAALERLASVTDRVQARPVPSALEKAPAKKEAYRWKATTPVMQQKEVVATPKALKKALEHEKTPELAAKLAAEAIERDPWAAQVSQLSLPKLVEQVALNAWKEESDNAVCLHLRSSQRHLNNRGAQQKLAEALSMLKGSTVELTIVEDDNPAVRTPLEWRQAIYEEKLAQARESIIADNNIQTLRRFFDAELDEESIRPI

Question: With DnaB (from UniProt P0ACB0) as the molecule, how does the Kd (τ (Escherichia coli)) read?
Answer: 4 nM

Question: With “τ domain III, B. subtilis (domain or fragment)” as the molecule, how does the stoichiometry N [1] read?
Answer: 2

B1: His-tagged DnaB, Bacillus stearothermophilus (enzyme, UniProt Q9X4C9 1-454, looked up)
chain: MSELFSERIPPQSIEAEQAVLGAVFLDPAALVPASEILIPEDFYRAAHQKIFHAMLRVADRGEPVDLVTVTAELAASEQLEEIGGVSYLSELADAVPTAANVEYYARIVEEKSVLRRLIRTATSIAQDGYTREDEIDVLLDEADRKIMEVSQRKHSGAFKNIKDILVQTYDNIEMLHNRDGEITGIPTGFTELDRMTSGFQRSDLIIVAARPSVGKTAFALNIAQNVATKTNENVAIFSLEMSAQQLVMRMLCAEGNINAQNLRTGKLTPEDWGKLTMAMGSLSNAGIYIDDTPSIRVSDIRAKCRRLKQESGLGMIVIDYLQLIQGSGRSKENRQQEVSEISRSLKALARELEVPVIALSQLSRSVEQRQDKRPMMSDIRESGSIEQDADIVAFLYRDDYYNKDSENKNIIEIIIAKQRNGPVGTVQLAFIKEYNKFVNLERRFDEAQIPPGA
Question: With B1 as the molecule, how does the Kd [2] read?
Answer: 2.3 nM

Question: Does B2 bind (atomic force microscopy)?
Answer: binds
